Read-outs that look alike come from different tables or passages of the source.

Data on three molecules can be found in patent publication US7413870B2, “SAK: modulation of cellular proliferation for treatment of cancer” (Rigel Pharmaceuticals, Incorporated, priority 2001, dated 2008).

One assay has as its system CHO cells. As to conditions: overexpression in CHO cells; cited from earlier work.
Another assay has as its system normal cells. Put plainly: antiproliferative effect of SAK wild type/mutants in normal cells (GFP positivity, cell tracker). Type of assay: cell-based.
A further assay relates to H1299 cells. Kind of assay: antiproliferative effect of SAK mutant in H1299 cells. Type of assay: cell-based.

B1: wild type mouse SAK: wild type mouse SAK overexpressed in CHO cells, from cited U.S. patents (protein, UniProt Q64702 1-925, looked up)
Serine/threonine-protein …: MAACIGERIEDFKVGNLLGKGSFAGVYRAESIHTGLEVAIKMIDKKAMYKAGMVQRVQNEVKIHCQLKHPSVLELYNYFEDNNYVYLVLEMCHNGEMNRYLKNRMKPFSEREARHFMHQIITGMLYLHSHGILHRDLTLSNILLTRNMNIKIADFGLATQLNMPHEKHYTLCGTPNYISPEIATRSAHGLESDIWSLGCMFYTLLIGRPPFDTDTVKNTLNKVVLADYEMPAFLSREAQDLIHQLLRRNPADRLSLSSVLDHPFMSRNPSPKSKDVGTVEDSMDSGHATLSTTITASSGTSLSGSLLDRRLLVGQPLPNKITVFQKNKNSSDFSSGDGSNFCTQWGNPEQEANSRGRGRVIEDAEERPHSRYLRRAHSSDRASPSNQSRAKTYSVERCHSVEMLSKPRRSLDENQHSSNHHCLGKTPFPFADQTPQMEMVQQWFGNLQMNAHLGETNEHHTVSPNRDFQDYPDLQDTLRNAWTDTRASKNADTSANVHAVKQLSAMKYMSAHHHKPEVMPQEPGLHPHSEQSKNRSMESTLGYQKPTLRSITSPLIAHRLKPIRQKTKKAVVSILDSEEVCVELLRECASEGYVKEVLQISSDGTMITVYYPNDGRGFPLADRPPLPTDNISRYSFDNLPEKYWRKYQYASRFIQLVRSKTPKITYFTRYAKCILMENSPGADFEVWFYDGAKIHKTENLIHIIEKTGISYNLKNENEVTSLKEEVKVYMDHANEGHRICLSLESVISEEEKRSRGSSFFPIIVGRKPGNTSSPKALSAPPVDPSCCKGEQASASRLSVNSAAFPTQSPGLSPSTVTVEGLGHTATATGTGVSSSLPKSAQLLKSVFVKNVGWATQLTSGAVWVQFNDGSQLVVQAGVSSISYTSPDGQTTRYGENEKLPEYIKQKLQCLSSILLMFSNPTPNFQ
B1: in the assay with CHO cells, the antiproliferative effect entry is reported as “antiproliferative”.

B2: SAK wild type: wild type human SAK serine/threonine kinase (SEQ ID NO:2), overexpressed in cells (protein, UniProt O00444 1-970, looked up)
Serine/threonine-protein …: MATCIGEKIEDFKVGNLLGKGSFAGVYRAESIHTGLEVAIKMIDKKAMYKAGMVQRVQNEVKIHCQLKHPSILELYNYFEDSNYVYLVLEMCHNGEMNRYLKNRVKPFSENEARHFMHQIITGMLYLHSHGILHRDLTLSNLLLTRNMNIKIADFGLATQLKMPHEKHYTLCGTPNYISPEIATRSAHGLESDVWSLGCMFYTLLIGRPPFDTDTVKNTLNKVVLADYEMPSFLSIEAKDLIHQLLRRNPADRLSLSSVLDHPFMSRNSSTKSKDLGTVEDSIDSGHATISTAITASSSTSISGSLFDKRRLLIGQPLPNKMTVFPKNKSSTDFSSSGDGNSFYTQWGNQETSNSGRGRVIQDAEERPHSRYLRRAYSSDRSGTSNSQSQAKTYTMERCHSAEMLSVSKRSGGGENEERYSPTDNNANIFNFFKEKTSSSSGSFERPDNNQALSNHLCPGKTPFPFADPTPQTETVQQWFGNLQINAHLRKTTEYDSISPNRDFQGHPDLQKDTSKNAWTDTKVKKNSDASDNAHSVKQQNTMKYMTALHSKPEIIQQECVFGSDPLSEQSKTRGMEPPWGYQNRTLRSITSPLVAHRLKPIRQKTKKAVVSILDSEEVCVELVKEYASQEYVKEVLQISSDGNTITIYYPNGGRGFPLADRPPSPTDNISRYSFDNLPEKYWRKYQYASRFVQLVRSKSPKITYFTRYAKCILMENSPGADFEVWFYDGVKIHKTEDFIQVIEKTGKSYTLKSESEVNSLKEEIKMYMDHANEGHRICLALESIISEEERKTRSAPFFPIIIGRKPGSTSSPKALSPPPSVDSNYPTRERASFNRMVMHSAASPTQAPILNPSMVTNEGLGLTTTASGTDISSNSLKDCLPKSAQLLKSVFVKNVGWATQLTSGAVWVQFNDGSQLVVQAGVSSISYTSPNGQTTRYGENEKLPDYIKQKLQCLSSILLMFSNPTPNFH
Regarding B2, the antiproliferative activity entry was “do not have significant antiproliferative activity” with normal cells and “neither wild type nor mutant SAK is antiproliferative” with normal cells (listed as wild type SAK). In addition, the antiproliferative effect result in the assay with normal cells (GFP positivity studies) is “no antiproliferative effect”.

B3: SAK K41M mutant: mutant SAK (K41M) serine/threonine kinase, overexpressed in cells in dominant negative studies (protein, UniProt O00444 1-970, looked up, variant K41M)
Serine/threonine-protein …: MATCIGEKIEDFKVGNLLGKGSFAGVYRAESIHTGLEVAIMMIDKKAMYKAGMVQRVQNEVKIHCQLKHPSILELYNYFEDSNYVYLVLEMCHNGEMNRYLKNRVKPFSENEARHFMHQIITGMLYLHSHGILHRDLTLSNLLLTRNMNIKIADFGLATQLKMPHEKHYTLCGTPNYISPEIATRSAHGLESDVWSLGCMFYTLLIGRPPFDTDTVKNTLNKVVLADYEMPSFLSIEAKDLIHQLLRRNPADRLSLSSVLDHPFMSRNSSTKSKDLGTVEDSIDSGHATISTAITASSSTSISGSLFDKRRLLIGQPLPNKMTVFPKNKSSTDFSSSGDGNSFYTQWGNQETSNSGRGRVIQDAEERPHSRYLRRAYSSDRSGTSNSQSQAKTYTMERCHSAEMLSVSKRSGGGENEERYSPTDNNANIFNFFKEKTSSSSGSFERPDNNQALSNHLCPGKTPFPFADPTPQTETVQQWFGNLQINAHLRKTTEYDSISPNRDFQGHPDLQKDTSKNAWTDTKVKKNSDASDNAHSVKQQNTMKYMTALHSKPEIIQQECVFGSDPLSEQSKTRGMEPPWGYQNRTLRSITSPLVAHRLKPIRQKTKKAVVSILDSEEVCVELVKEYASQEYVKEVLQISSDGNTITIYYPNGGRGFPLADRPPSPTDNISRYSFDNLPEKYWRKYQYASRFVQLVRSKSPKITYFTRYAKCILMENSPGADFEVWFYDGVKIHKTEDFIQVIEKTGKSYTLKSESEVNSLKEEIKMYMDHANEGHRICLALESIISEEERKTRSAPFFPIIIGRKPGSTSSPKALSPPPSVDSNYPTRERASFNRMVMHSAASPTQAPILNPSMVTNEGLGLTTTASGTDISSNSLKDCLPKSAQLLKSVFVKNVGWATQLTSGAVWVQFNDGSQLVVQAGVSSISYTSPNGQTTRYGENEKLPDYIKQKLQCLSSILLMFSNPTPNFH
Turning to B3, the antiproliferative effect entry in the assay on H1299 cells was “weak antiproliferative effect”. Further, the antiproliferative activity result in the assay with normal cells was “does not have strong antiproliferative effects”.
